Test results from patent US20210292392A1 (TSB THERAPEUTICS BEIJING, published 2021).
Where two headings read alike, the source gives them in different places.

B1: P2B-1G5 (antibody, human IgG1, lambda, V domains shown)
VH: QVQLVQSGSELKKPGASVKVSCKASGYTFTTYVMNWVRQAPGQGLEWMGWINTNTGNPTYAQGFTGRFVFSLDTSVSTASLQISSLKAEDTAVYYCSCEITTLGGMDVWGQGTTVTVSS
VL: SYVLTQPPSVSVAPGKTARITCGGNNIGSKSVHWYQQKPGQAPVLVIYYDSDRPSGIPERFSGSNSGNTATLTISGVEAGDEADYYCQVWDSISDHRVFGGGTKLTVLG
B2: P2B-2F6 (antibody, V domains shown)
VH: QVQLQESGPGLVKPSETLSLTCTVSGYSISSGYYWGWIRQPPGKGLEWIGSIYHSGSTYYNPSLKTRVTISVDTSKNQFSLKLSSVTAADTAVYYCARAVVGIVVVPAAGRRAFDIWGQGTMVTVSS
VL: QSALTQPPSASGSPGQSVTISCTGTSSDVGGYNYVSWYQQHPGKAPKLMIYEVSKRPSGVPDRFSGSKSGNTASLTVSGLQAEDEADYYCSSYAGSNNLVFGGGTKLTVLG
B3: P2B-2F6 (antibody, V domains shown)
VH: B2 VH
VL: B2 VL
B4: P2B-2F6 (antibody, V domains shown)
VH: B2 VH
VL: B2 VL
B5: P4B-1F4 (antibody, human IgG1, kappa, V domains shown)
VH: QVQLVESGGGVVQPGRSLRLSCAASGFTFSSYGMHWVRQAPGKGLEWVAVISYDGSNKYYADSVKGRFTISRDNSKNTLYLQINSLRAEDTAVYYCAKGPRYSSSWYISLYYYYGMDVWGQGTTVTVSS
VL: not shown
B6: P2A-1A8 (antibody, V domains shown)
VH: EVQLVESGGDLVQPGRSLRLSCAASGFAFDDYAMHWVRQAPGKGLEWVSGSTWNSGTIAYADSVKGRFTISRDNAKKSLYLQMNSLRTEDTALYYCAKLGGYSDYDYPRPGDHYYGLDVWGQGTTVTVSS
VL: QSALTQPASVSGSPGQSITISCTGTSSDVGSYNLVSWYQQHPGKVPKLLIYDVNKRPSGISNRFSGSKSGNTASLTISGLQAEDEADYYCRSYTDSNTYVFGTGTKVTVLG

Tests used:
[1] = biological target: recombinant RBD of the spike protein of SARS-CoV-2 (residues Arg319-Phe541) (SARS-CoV-2, UniProt P0DTC2 319-541)
[2] = biological target: T1, full length spike (S) protein of SARS-CoV-2 (SARS-CoV-2, UniProt P0DTC2 14-1273); assay: cell-based or functional assay
[3] = biological target: T1, full length spike (S) protein of …; assay: cell-based or functional assay; remark: listed apart in the source
[4] = biological target: spike protein on live SARS-CoV-2 (SARS-CoV-2, UniProt P0DTC2 14-1273); assay: cell-based or functional assay
[5] = biological target: full length spike (S) protein of SARS-CoV-2 on pseudovirus (SARS-CoV-2, UniProt P0DTC2 14-1273); assay: cell-based or functional assay
[6] = biological target: spike (S) protein of live SARS-CoV-2 (SARS-CoV-2, UniProt P0DTC2 14-1273); assay: cell-based or functional assay
[7] = biological target: spike protein of live SARS-CoV-2 (SARS-CoV-2, UniProt P0DTC2 14-1273); assay: cell-based or functional assay
[8] = biological target: full length S protein of SARS-CoV-2 (on pseudovirus) (SARS-CoV-2, UniProt P0DTC2 14-1273); assay: cell-based or functional assay
[9] = biological target: T1, full length spike (S) protein of …; assay: cell-based or functional assay; remark: listed apart in the source

| Binder | IC50, pseudovirus neutralization [3] [µg/mL] | Neutralizing activity (%) Mean at 0.0228624 µg/ml [3] [%] | Neutralizing activity (%) Mean at 0.0685871 µg/ml [3] [%] | Neutralizing activity (%) Mean at 0.2057613 µg/ml [3] [%] | Neutralizing activity (%) Mean at 0.6172839 µg/ml [3] [%] | Neutralizing activity (%) Mean at 1.851852 µg/ml [3] [%] | Neutralizing activity (%) Mean at 5.555555 µg/ml [3] [%] | Neutralizing activity (%) Mean at 16.66667 µg/ml [3] [%] | Neutralizing activity (%) Mean at 50 µg/ml [3] [%] | IC50, live SARS-CoV-2 focus reduction neutralization test (FRNT) [4] [µg/mL] | other results |
| --- | --- | --- | --- | --- | --- | --- | --- | --- | --- | --- | --- |
| B1 | – | – | – | – | – | – | – | – | – | – | Kd [1]: 0.1 nM; kon [1]: 1.38e+06 M⁻¹ s⁻¹; IC50, pseudovirus neutralization [2]: 0.11 µg/mL |
| B2 | 0.05 | 39.4 | 51.8 | 67.1 | 81.4 | 89 | 93.5 | 95.4 | 97.4 | 0.41 | – |
| B3 | – | – | – | – | – | – | – | – | – | – | Pseudovirus IC50 [5]: 0.05 µg/mL; Pseudovirus IC80 [5]: 0.607 µg/mL; Live virus IC50 [6]: 0.407 µg/mL; Live virus IC80 [6]: 2.43 µg/mL |
| B4 | – | – | – | – | – | – | – | – | – | – | Live virus IC50 [7]: 0.407 µg/mL; Pseudovirus IC50 [8]: 0.05 µg/mL; Pseudovirus IC80 [8]: 0.607 µg/mL |
| B5 | – | – | – | – | – | – | – | – | – | – | IC90, Pesudovirus neutralization [9]: 14.5 µg/mL |
| B6 | 7.68 | 4.34 | 13.2 | 14.1 | 16.5 | 26.7 | 44.8 | 67.8 | 88.2 | 35.9 | – |
